According to US20220025010A1 (ANTAG THERAPEUTICS, published 2022):
*1 amine or outer side, *2 acyl side, *3 side chain or, on linkers, in order; H or OH if unused. Where no end group is shown, it is not given here. Side-chain parts run from the residue outwards. The star is where a group is joined. C16 diacid = O=C(O)CCCCCCCCCCCCCCC(=O)*; γGlu = O=C(O)[C@H](CCC(=O)[*:2])N[*:1]; AEEA = NCCOCCOCC(=O)O

T1: human GIP receptor (human, UniProt P48546 22-466)
T1 sequence (looked up): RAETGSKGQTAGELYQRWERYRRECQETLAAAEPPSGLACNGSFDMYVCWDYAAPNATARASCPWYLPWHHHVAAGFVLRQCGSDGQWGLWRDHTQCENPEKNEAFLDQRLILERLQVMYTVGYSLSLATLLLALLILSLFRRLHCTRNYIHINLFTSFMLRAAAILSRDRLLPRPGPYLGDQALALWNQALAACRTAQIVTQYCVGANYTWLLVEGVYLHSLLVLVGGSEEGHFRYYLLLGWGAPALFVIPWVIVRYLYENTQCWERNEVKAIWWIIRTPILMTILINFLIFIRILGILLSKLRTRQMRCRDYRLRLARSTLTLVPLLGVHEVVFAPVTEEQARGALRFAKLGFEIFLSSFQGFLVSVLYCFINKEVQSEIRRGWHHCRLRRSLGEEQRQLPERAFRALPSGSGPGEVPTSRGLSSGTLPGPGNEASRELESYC

B1: AT510 (peptide)
peptide: SGTFISDYSIAMDRIKQQDFVNWLLAQR
HELM: PEPTIDE1{S.G.T.F.I.S.D.Y.S.I.A.M.D.R.I.K.Q.Q.D.F.V.N.W.L.L.A.Q.R.[am]}|PEPTIDE2{[O=C(O)CCCCCCCCCCCCCCC(=O)[*:2]].[gGlu].[O=C(COCCOCCN[*:1])[*:2]]}$PEPTIDE1,PEPTIDE2,16:R3-3:R2$$$V2.0; N-terminus assumed
SMILES: CC[C@H](C)[C@H](NC(=O)[C@H](CO)NC(=O)[C@H](Cc1ccc(O)cc1)NC(=O)[C@H](CC(=O)O)NC(=O)[C@H](CO)NC(=O)[C@@H](NC(=O)[C@H](Cc1ccccc1)NC(=O)[C@@H](NC(=O)CNC(=O)[C@@H](N)CO)[C@@H](C)O)[C@@H](C)CC)C(=O)N[C@@H](C)C(=O)N[C@@H](CCSC)C(=O)N[C@@H](CC(=O)O)C(=O)N[C@@H](CCCNC(=N)N)C(=O)N[C@H](C(=O)N[C@@H](CCCCNC(=O)COCCOCCNC(=O)CC[C@H](NC(=O)CCCCCCCCCCCCCCC(=O)O)C(=O)O)C(=O)N[C@@H](CCC(N)=O)C(=O)N[C@@H](CCC(N)=O)C(=O)N[C@@H](CC(=O)O)C(=O)N[C@@H](Cc1ccccc1)C(=O)N[C@H](C(=O)N[C@@H](CC(N)=O)C(=O)N[C@@H](Cc1c[nH]c2ccccc12)C(=O)N[C@@H](CC(C)C)C(=O)N[C@@H](CC(C)C)C(=O)N[C@@H](C)C(=O)N[C@@H](CCC(N)=O)C(=O)N[C@@H](CCCNC(=N)N)C(N)=O)C(C)C)[C@@H](C)CC
B2: AT508 (peptide)
peptide: GGTFISDYSIAMDRIKQQDFVNWLLAQR
HELM: PEPTIDE1{G.G.T.F.I.S.D.Y.S.I.A.M.D.R.I.K.Q.Q.D.F.V.N.W.L.L.A.Q.R.[am]}|PEPTIDE2{[O=C(O)CCCCCCCCCCCCCCC(=O)[*:2]].[gGlu].[O=C(COCCOCCN[*:1])[*:2]]}$PEPTIDE1,PEPTIDE2,16:R3-3:R2$$$V2.0; N-terminus assumed
SMILES: CC[C@H](C)[C@H](NC(=O)[C@H](CO)NC(=O)[C@H](Cc1ccc(O)cc1)NC(=O)[C@H](CC(=O)O)NC(=O)[C@H](CO)NC(=O)[C@@H](NC(=O)[C@H](Cc1ccccc1)NC(=O)[C@@H](NC(=O)CNC(=O)CN)[C@@H](C)O)[C@@H](C)CC)C(=O)N[C@@H](C)C(=O)N[C@@H](CCSC)C(=O)N[C@@H](CC(=O)O)C(=O)N[C@@H](CCCNC(=N)N)C(=O)N[C@H](C(=O)N[C@@H](CCCCNC(=O)COCCOCCNC(=O)CC[C@H](NC(=O)CCCCCCCCCCCCCCC(=O)O)C(=O)O)C(=O)N[C@@H](CCC(N)=O)C(=O)N[C@@H](CCC(N)=O)C(=O)N[C@@H](CC(=O)O)C(=O)N[C@@H](Cc1ccccc1)C(=O)N[C@H](C(=O)N[C@@H](CC(N)=O)C(=O)N[C@@H](Cc1c[nH]c2ccccc12)C(=O)N[C@@H](CC(C)C)C(=O)N[C@@H](CC(C)C)C(=O)N[C@@H](C)C(=O)N[C@@H](CCC(N)=O)C(=O)N[C@@H](CCCNC(=N)N)C(N)=O)C(C)C)[C@@H](C)CC
B3: AT512 (peptide)
peptide: PGTFISDYSIAMDRIKQQDFVNWLLAQR
HELM: PEPTIDE1{P.G.T.F.I.S.D.Y.S.I.A.M.D.R.I.K.Q.Q.D.F.V.N.W.L.L.A.Q.R.[am]}|PEPTIDE2{[O=C(O)CCCCCCCCCCCCCCC(=O)[*:2]].[gGlu].[O=C(COCCOCCN[*:1])[*:2]]}$PEPTIDE1,PEPTIDE2,16:R3-3:R2$$$V2.0; N-terminus assumed
SMILES: CC[C@H](C)[C@H](NC(=O)[C@H](CO)NC(=O)[C@H](Cc1ccc(O)cc1)NC(=O)[C@H](CC(=O)O)NC(=O)[C@H](CO)NC(=O)[C@@H](NC(=O)[C@H](Cc1ccccc1)NC(=O)[C@@H](NC(=O)CNC(=O)[C@@H]1CCCN1)[C@@H](C)O)[C@@H](C)CC)C(=O)N[C@@H](C)C(=O)N[C@@H](CCSC)C(=O)N[C@@H](CC(=O)O)C(=O)N[C@@H](CCCNC(=N)N)C(=O)N[C@H](C(=O)N[C@@H](CCCCNC(=O)COCCOCCNC(=O)CC[C@H](NC(=O)CCCCCCCCCCCCCCC(=O)O)C(=O)O)C(=O)N[C@@H](CCC(N)=O)C(=O)N[C@@H](CCC(N)=O)C(=O)N[C@@H](CC(=O)O)C(=O)N[C@@H](Cc1ccccc1)C(=O)N[C@H](C(=O)N[C@@H](CC(N)=O)C(=O)N[C@@H](Cc1c[nH]c2ccccc12)C(=O)N[C@@H](CC(C)C)C(=O)N[C@@H](CC(C)C)C(=O)N[C@@H](C)C(=O)N[C@@H](CCC(N)=O)C(=O)N[C@@H](CCCNC(=N)N)C(N)=O)C(C)C)[C@@H](C)CC
B4: AT514 (peptide)
peptide: GGTFISDYSIAMDRIK([AEEA-AEEA-γGlu-C16 diacid])QQDFVNWLLAQR-NH2
modifications: N-terminus assumed
SMILES: CC[C@H](C)[C@H](NC(=O)[C@H](CO)NC(=O)[C@H](Cc1ccc(O)cc1)NC(=O)[C@H](CC(=O)O)NC(=O)[C@H](CO)NC(=O)[C@@H](NC(=O)[C@H](Cc1ccccc1)NC(=O)[C@@H](NC(=O)CNC(=O)CN)[C@@H](C)O)[C@@H](C)CC)C(=O)N[C@@H](C)C(=O)N[C@@H](CCSC)C(=O)N[C@@H](CC(=O)O)C(=O)N[C@@H](CCCNC(=N)N)C(=O)N[C@H](C(=O)N[C@@H](CCCCNC(=O)COCCOCCNC(=O)COCCOCCNC(=O)CC[C@H](NC(=O)CCCCCCCCCCCCCCC(=O)O)C(=O)O)C(=O)N[C@@H](CCC(N)=O)C(=O)N[C@@H](CCC(N)=O)C(=O)N[C@@H](CC(=O)O)C(=O)N[C@@H](Cc1ccccc1)C(=O)N[C@H](C(=O)N[C@@H](CC(N)=O)C(=O)N[C@@H](Cc1c[nH]c2ccccc12)C(=O)N[C@@H](CC(C)C)C(=O)N[C@@H](CC(C)C)C(=O)N[C@@H](C)C(=O)N[C@@H](CCC(N)=O)C(=O)N[C@@H](CCCNC(=N)N)C(N)=O)C(C)C)[C@@H](C)CC

Target: T1, human GIP receptor
Experiment: cell-based or functional assay

Binder	CisBio cAMP agonism % Efficacy [%]	CisBio cAMP antagonism % inhib [%]	CisBio cAMP antagonism IC50 [µM]	CisBio cAMP antagonism pIC50	DiscoveRx cAMP antagonism % inhib [%]	DiscoveRx cAMP antagonism IC50 [µM]	DiscoveRx cAMP antagonism log IC50 [log M]
B1	2	87	0.0584	7.2	100	0.03	-7.5
B2	0	89	0.0926	7	100	0.023	-7.6
B3	0	73	0.0794	7.1	80	0.168	-6.8
B4	0	86	0.0316	7.5	80	0.039	-7.4
